Results: paper PMC9278102

Tests used:
hACE2-fc dimer (human) = hACE2-fc dimer (human) (UniProt Q9BYF1); assay: SPR
[1] = target: SARS-CoV-2 S1-S2-His-T4 trimer (SARS-CoV-2 (wt; Wuhan strain)); assay: SEC

UniProt Q9BYF1, sequence (Q9BYF1 18-740): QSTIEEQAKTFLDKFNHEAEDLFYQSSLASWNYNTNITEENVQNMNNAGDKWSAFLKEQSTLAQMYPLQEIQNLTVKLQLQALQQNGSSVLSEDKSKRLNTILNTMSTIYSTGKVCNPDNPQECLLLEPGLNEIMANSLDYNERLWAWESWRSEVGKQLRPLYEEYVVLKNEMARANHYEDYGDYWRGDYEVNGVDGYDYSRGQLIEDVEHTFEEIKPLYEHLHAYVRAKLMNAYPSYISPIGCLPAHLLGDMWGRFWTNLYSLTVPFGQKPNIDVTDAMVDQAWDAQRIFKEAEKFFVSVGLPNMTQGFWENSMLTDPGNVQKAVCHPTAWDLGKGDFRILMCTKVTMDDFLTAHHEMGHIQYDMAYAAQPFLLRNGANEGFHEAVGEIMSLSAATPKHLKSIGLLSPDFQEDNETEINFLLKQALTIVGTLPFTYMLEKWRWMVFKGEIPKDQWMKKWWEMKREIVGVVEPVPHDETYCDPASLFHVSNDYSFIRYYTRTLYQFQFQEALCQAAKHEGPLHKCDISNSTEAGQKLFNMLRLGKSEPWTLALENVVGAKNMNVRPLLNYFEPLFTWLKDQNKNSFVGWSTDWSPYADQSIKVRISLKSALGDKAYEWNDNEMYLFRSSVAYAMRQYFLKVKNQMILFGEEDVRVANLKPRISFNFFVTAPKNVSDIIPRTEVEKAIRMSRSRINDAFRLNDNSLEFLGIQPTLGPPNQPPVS

SARS-CoV-2 S1-S2-His-T4 trimer (domain or fragment)
KD1 (two-state fit, primary binding) (hACE2-fc dimer (human)): 1.8 nM | Kd (hACE2-fc dimer (human)): 0.04 nM | ka1 (two-state fit, primary binding) (hACE2-fc dimer (human)): 780000 M⁻¹ s⁻¹ | ka2 (two-state fit, secondary transition) (hACE2-fc dimer (human)): 0.011 M⁻¹ s⁻¹ | kd1 (two-state fit, primary binding) (hACE2-fc dimer (human)): 0.0014 s⁻¹ | kd2 (two-state fit, secondary transition) (hACE2-fc dimer (human)): 0.00024 s⁻¹ | stoichiometry N [1]: 3
